Reference: publication PMC3791466, “Structure of a helicase–helicase loader complex reveals insights into the mechanism of bacterial primosome assembly” (Nature Communications, 2013)

T1: Bacillus subtilis helicase loader protein DnaI (B. subtilis), P06567
T1 chain: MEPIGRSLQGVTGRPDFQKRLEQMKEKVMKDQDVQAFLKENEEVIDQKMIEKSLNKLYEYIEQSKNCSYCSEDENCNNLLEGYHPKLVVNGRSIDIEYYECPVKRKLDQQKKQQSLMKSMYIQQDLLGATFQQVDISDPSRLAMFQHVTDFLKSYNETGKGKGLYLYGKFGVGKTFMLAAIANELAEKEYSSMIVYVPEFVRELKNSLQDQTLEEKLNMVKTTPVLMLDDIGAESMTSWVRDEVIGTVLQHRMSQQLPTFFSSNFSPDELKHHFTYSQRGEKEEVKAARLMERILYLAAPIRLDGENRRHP

T2: Bacillus stearothermophilus helicase DnaB (B. stearothermophilus, UniProt Q9X4C9 1-454)
T2 construct: replicative DNA helicase DnaB of Bacillus stearothermophilus; N-terminal domain, linker and C-terminal RecA-fold domain; both the NTD and the CTD are in the structure; also called BstDnaB; hexameric helicase ring
T2 sequence: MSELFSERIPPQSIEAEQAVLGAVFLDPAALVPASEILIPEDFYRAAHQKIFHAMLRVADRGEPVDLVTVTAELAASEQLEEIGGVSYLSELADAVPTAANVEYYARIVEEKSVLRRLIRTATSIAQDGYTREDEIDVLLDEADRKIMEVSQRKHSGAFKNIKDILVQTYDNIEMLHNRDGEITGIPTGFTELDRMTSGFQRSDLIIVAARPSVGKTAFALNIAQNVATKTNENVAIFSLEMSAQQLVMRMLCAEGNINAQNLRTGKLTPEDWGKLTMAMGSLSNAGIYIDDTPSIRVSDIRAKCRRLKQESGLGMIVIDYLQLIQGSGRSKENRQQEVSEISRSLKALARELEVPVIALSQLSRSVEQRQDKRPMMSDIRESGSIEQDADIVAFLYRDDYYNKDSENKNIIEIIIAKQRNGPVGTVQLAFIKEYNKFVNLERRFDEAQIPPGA


What was measured:
[1] = target: T1, Bacillus subtilis helicase loader …; assay: crystal structure; 570-kDa complex of BstDnaB, BsuDnaI and HBD of BstDnaG, molecular replacement, 7.5 Å; proteins in the crystals confirmed by tryptic digestion and mass spectrometry; details: remark: other sources report otherwise
[2] = target: T1, Bacillus subtilis helicase loader …; assay: SEC-MALS; gel filtration and multiple-angle light scattering of BsuDnaI alone at 10 mg/ml; details: remark: other sources report otherwise
[3] = target: T2, Bacillus stearothermophilus helicase …; assay: crystal structure; 570-kDa complex of BstDnaB, BsuDnaI and HBD of BstDnaG, molecular replacement, 7.5 Å; proteins in the crystals confirmed by tryptic digestion and mass spectrometry; details: both partners purified
[4] = target: T2, Bacillus stearothermophilus helicase …; assay: crystal structure; another crystal form obtained under different conditions, content shown by molecular replacement; details: both partners purified

Row | stoichiometry N [1] | percent monomer at 10 mg/ml [2] | stoichiometry N [2] | stoichiometry N [3] | stoichiometry N [4] | Binder
1 | 6 | 93% | 2 | 3 loader dimers per helicase hexamer | – | Bacillus subtilis helicase loader protein DnaI (natural protein, B. subtilis, primosomal helicase loader DnaI of Bacillus subtilis 168, cloned by PCR from genomic DNA into NcoI-XhoI of pET21d(+); the reverse primer has no stop codon before XhoI, so a C-terminal His tag of the vector is surmised; No cleavage of the tag is described; also called BsuDnaI) MEPIGRSLQGVTGRPDFQKRLEQMKEKVMKDQDVQAFLKENEEVIDQKMIEKSLNKLYEYIEQSKNCSYCSEDENCNNLLEGYHPKLVVNGRSIDIEYYECPVKRKLDQQKKQQSLMKSMYIQQDLLGATFQQVDISDPSRLAMFQHVTDFLKSYNETGKGKGLYLYGKFGVGKTFMLAAIANELAEKEYSSMIVYVPEFVRELKNSLQDQTLEEKLNMVKTTPVLMLDDIGAESMTSWVRDEVIGTVLQHRMSQQLPTFFSSNFSPDELKHHFTYSQRGEKEEVKAARLMERILYLAAPIRLDGENRRHP
2 | – | – | – | 3 HBDs per helicase hexamer | 3 HBDs per DnaB hexamer | helicase-binding domain (HBD) of Bacillus stearothermophilus primase DnaG (domain or fragment, B. stearothermophilus, also called HBD of BstDnaG; HBD of primase DnaG) KLLPAFQNAERLLLAHMMRSRDVALVVQERIGGRFNIEEHRALAAYIYAFYEEGHEADPGALISRIPGELQPLASDVSLLLIADDVSEQELEDYIRHVLNRPKWLMLKVKEQEKTEAERRKDFLTAARIAKEMIEMKKMLSSS
